Assay results published in patent US20150132305A1.
Changes are numbered by the printed parent chain. No end group written: not given here.

B1: human Cad-11-EC1-hIgG2-Fc1 fusion protein (Fc fusion)
chain: FAPERRGHLRPSFHGHHEKGKEGQVLQRSKRGWVWNQFFVIEEYTGPDPVLVGRLHSDIDSGDGNIKYILSGEGAGTIFVIDDKSGNIHATKTLDREERAQYTLMAQAVDRDTNRPLEPPSEFIVKVQRSVECPPCPAPPVAGPSVFLFPPKPKDTLMISRTPEVTCVVVDVSHEDPEVQFNWYVDGMEVHNAKTKPREEQFNSTFRVVSVLTVVHQDWLNGKEYKCKVSNKGLPAPIEKTISKTKGQPREPQVYTLPPSREEMTKNQVSLTCLVKGFYPSDIAVEWESNGQPENNYKTTPPMLDSDGSFFLYSKLTVDKSRWQQGNVFSCSVMHEALHNHYTQKSLSLSPGKVPRLA
B2: Cad-11-EC1-5-Fc fusion protein (5 extracellular domains of Cad-11 fused to the human IgG2 hinge, CH2 and CH3 domains) (Fc fusion, not shown: a dimerising Fc or GST)
chain: GWVWNQFFVIEEYTGPDPVLVGRLHSDIDSGDGNIKYILSGEGAGTIFVIDDKSGNIHATKTLDREERAQYTLMAQAVDRDTNRPLEPPSEFIVKVQDINDNPPEFLHETYHANVPERSNVGTSVIQVTASDADDPTYGNSAKLVYSILEGQPYFSVEAQTGIIRTALPNMDREAKEEYHVVIQAKDMGGHMGGLSGTTKVTITLTDVNDNPPKFPQSVYQMSVSEAAVPGEEVGRVKAKDPDIGENGLVTYNIVDGDGMESFEITTDYETQEGVIKLKKPVDFETKRAYSLKVEAANVHIDPKFISNGPFKDTVTVKISVEDADEPPMFLAPSYIHEVQENAAAGTVVGRVHAKDPDAANSPIRYSIDRHTDLDRFFTINPEDGFIKTTKPLDREETAWLNITVFAAEIHNRHQEAKVPVAIRVLDVNDNAPKFAAPYEGFICESDQTKPLSNQPIVTISADDKDDTANGPRFIFSLPPEIIHNPNFTVRDNRDNTAGVYARRGGFSRQKQDLYLLPIVISDGGIPPMSSTNTLTIKVCGCDVNGALLSCNAEAYILNAGLST
B3: H1M1 anti-Cad-11 EC1 domain antibody (hybridoma H1M1, ATCC PTA-9699) (antibody, V domains shown)
VH: EVQLQQSGPELVKPGASVKISCKASGYSFTGYFMNWVKQSHGKSLEWIGRINPYTGDTFYNQKFKGKATLTVDKSSSTAHMELLSLSSEDSAVYYCGRLGSRYWYFDVWGAGTTVTVSS
VL: DVLMTQTPLSLPVSLGDQASISCRSSQSIIHSNGNTYLEWYLQKPGQSPKLLIYKVSNRFSGVPDRFWTFGGGTKLEIKTGSGSGTDFTLKISRVEAEDLGVYYCFQGSHVPWTFGGGTKLEIK
B4: SDP081 humanized anti-Cad-11 EC1 antibody (Vκ2/VH3) (antibody, IgG4, V domains shown)
VH: EVQLVQSGAEVKKPGASVKISCKASGYSFTGYFMNWVRQAPGQGLEWIGRINPYTGDTFYNQKFKGRATLTVDKSTSTAYMELSSLRSEDTAVYYCGRLGSRYWYFDVWGQGTTVTVSS
VL: DVLMTQTPLSSPVTLGQPASISCRSSQSIIHSNGNTYLEWYLQKPGQSPQLLIYKVSNRFSGVPDRFSGSGSGTDFTLKISRVEAEDVGVYYCFQGSHVPWTFGQGTKLEIK
B5: SDP091 humanized anti-Cad-11 EC1 antibody (Vκ2/VH4) (antibody, IgG4, V domains shown)
VH: B4 VH with I20V, L70I
VL: B4 VL
B6: SDP111 humanized anti-Cad-11 EC1 antibody (Vκ3/VH1) (antibody, IgG4, V domains shown)
VH: B4 VH with A9P, V11L, R38K, P41H, T76S, S84V, R87S, T91S
VL: B4 VL with L3V
B7: SDP121 humanized anti-Cad-11 EC1 antibody (Vκ3/VH2) (antibody, IgG4, V domains shown)
VH: B4 VH with R38K
VL: B4 VL with L3V
B8: SDP131 humanized anti-Cad-11 EC1 antibody (Vκ3/VH3) (antibody, IgG4, V domains shown)
VH: B4 VH
VL: B4 VL with L3V
B9: SDP141 humanized anti-Cad-11 EC1 antibody (Vκ3/VH4) (antibody, IgG4, V domains shown)
VH: B4 VH with I20V, L70I
VL: B4 VL with L3V
B10: SDP151 humanized anti-Cad-11 EC1 antibody (Vκ3/VH5) (antibody, IgG4, V domains shown)
VH: B4 VH with I20V, A68V, L70I
VL: B4 VL with L3V
B11: SDP051 humanized anti-Cad-11 EC1 antibody (Vκ1/VH5) (antibody, IgG4, V domains shown)
VH: B4 VH with I20V, A68V, L70I
VL: B4 VL with S68T
B12: Cad-11 37-mer peptide linked to BSA (encompasses the Cad-11 immunogen) (peptide)
peptide: GWVWNQFFVIEEYTGPDPVLVGRLHSDIDSGDGNIKY
modifications: also: linked to BSA
B13: SDP011 humanized anti-Cad-11 EC1 antibody (Vκ1/VH1) (antibody, IgG4, V domains shown)
VH: B4 VH with A9P, V11L, R38K, P41H, T76S, S84V, R87S, T91S
VL: B4 VL with S68T
B14: SDP021 humanized anti-Cad-11 EC1 antibody (Vκ1/VH2) (antibody, IgG4, V domains shown)
VH: B4 VH with R38K
VL: B4 VL with S68T
B15: SDP031 humanized anti-Cad-11 EC1 antibody (Vκ1/VH3) (antibody, IgG4, V domains shown)
VH: B4 VH
VL: B4 VL with S68T
B16: SDP041 humanized anti-Cad-11 EC1 antibody (Vκ1/VH4) (antibody, IgG4, V domains shown)
VH: B4 VH with I20V, L70I
VL: B4 VL with S68T
B17: SDP061 humanized anti-Cad-11 EC1 antibody (Vκ2/VH1) (antibody, IgG4, V domains shown)
VH: B4 VH with A9P, V11L, R38K, P41H, T76S, S84V, R87S, T91S
VL: B4 VL
B18: SDP071 humanized anti-Cad-11 EC1 antibody (Vκ2/VH2) (antibody, IgG4, V domains shown)
VH: B4 VH with R38K
VL: B4 VL

What was measured:
[1] = molecular target: T1, human Cadherin-11 on cells (Cad-11-expressing 431-D-11 cells; human fibroblast-like synoviocytes) (human) (UniProt P55287); assay: cell-based or functional assay
T1 sequence: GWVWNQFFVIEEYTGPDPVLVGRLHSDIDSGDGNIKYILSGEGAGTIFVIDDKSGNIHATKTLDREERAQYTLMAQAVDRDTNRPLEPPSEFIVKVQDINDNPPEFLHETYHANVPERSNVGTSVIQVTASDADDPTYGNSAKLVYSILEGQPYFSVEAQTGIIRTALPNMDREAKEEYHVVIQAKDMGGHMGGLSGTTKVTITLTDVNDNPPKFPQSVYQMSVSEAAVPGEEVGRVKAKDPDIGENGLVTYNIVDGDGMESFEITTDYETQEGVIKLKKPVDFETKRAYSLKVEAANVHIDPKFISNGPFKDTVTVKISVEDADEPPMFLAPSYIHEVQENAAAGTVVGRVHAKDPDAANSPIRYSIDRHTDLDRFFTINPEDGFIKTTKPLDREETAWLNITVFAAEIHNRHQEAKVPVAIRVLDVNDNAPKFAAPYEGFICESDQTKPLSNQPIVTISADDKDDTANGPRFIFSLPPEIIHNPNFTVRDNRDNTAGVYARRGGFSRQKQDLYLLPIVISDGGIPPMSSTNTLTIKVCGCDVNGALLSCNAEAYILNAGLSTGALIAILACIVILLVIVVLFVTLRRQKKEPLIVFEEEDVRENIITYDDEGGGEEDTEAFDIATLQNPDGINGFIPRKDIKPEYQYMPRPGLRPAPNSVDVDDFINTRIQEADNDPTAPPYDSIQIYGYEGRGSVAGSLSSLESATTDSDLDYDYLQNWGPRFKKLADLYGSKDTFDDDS

[2] = molecular target: Cad-11 EC1 domain peptide, first 33 amino acids (G1-G33), specificity ELISA of Example 5 (human); assay: ELISA on biotin EC1 peptides
[3] = molecular target: T2, Cad-8 EC1 domain peptide (region overlapping G1-G33 of the Cad-11 EC1 domain) (UniProt P55286); assay: ELISA on biotin EC1 peptides
T2 sequence (peptide, conjugated to biotin, looked up): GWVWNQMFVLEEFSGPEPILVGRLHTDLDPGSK

[4] = molecular target: T3, recombinant Cad-11 EC1 human IgG1 fusion protein (R&D Systems Cat. No. 1790-CA-050) (human) (UniProt P55287); assay: competition ELISA on coated recombinant human Cad-11 EC1 fusion protein against biotinylated SYN0012 (0.1 µg/ml)
T3 sequence: B2 chain

[5] = molecular target: T4, Cad-11 37-mer peptide linked to BSA (encompasses the Cad-11 immunogen) (human); assay: ELISA, BSA-coupled 37-mer cadherin peptide coated at 500 ng/ml, A450
T4 sequence (peptide, linked to BSA): B12 peptide

[6] = molecular target: T4, Cad-11 37-mer peptide linked to BSA (encompasses the Cad-11 immunogen) (human); assay: ELISA on peptide antigens, 50 ng/ml coat
[7] = molecular target: T4, Cad-11 37-mer peptide linked to BSA (encompasses the Cad-11 immunogen) (human); assay: ELISA on peptide antigen, 50 ng/ml coat; Cad-11 antigen, 50 ng/ml coat
[8] = molecular target: T4, Cad-11 37-mer peptide linked to BSA (encompasses the Cad-11 immunogen) (human); assay: ELISA on BSA-coupled 37-mer peptides, 500 ng/ml coat
[9] = molecular target: SDP051 humanized anti-Cad-11 EC1 antibody (Vκ1/VH5); assay: flow cytometry blocking assay: peptide titrated with SDP 051 at 0.5 ug/ml on Cad-11 expressing 431D cells; blocked: binding of SDP051 to cell-surface Cad-11; MFI

| EC50 (read off the curve) [5] | further results | Binder |
| --- | --- | --- |
|  | Cad-11 mediated cell aggregation [1]: 3 µg/mL | B1 |
|  | Cad-11 mediated cell aggregation [1]: 100 µg/mL | B2 |
|  | fold higher binding to Cad-11 than to any of the other cadherins tested [2]: > 100 fold; fold lower binding than to Cad-11 [3]: 1500 fold; inhibition of FLS invasion into MATRIGEL-coated membrane [1]: 80%; IC50 (read off the curve) [4]: 0.2 µg/mL | B3 |
| 0.07 µg/mL |  | B4 |
| 0.07 µg/mL |  | B5 |
| 0.07 µg/mL |  | B6 |
| 0.05 µg/mL |  | B7 |
| 0.07 µg/mL |  | B8 |
| 0.06 µg/mL |  | B9 |
| 0.06 µg/mL |  | B10 |
| 0.04 µg/mL | binding differential, Cad-11 against Cad-8 [6]: > 200 fold; EC50 [7]: 0.0068 µg/mL; fold greater binding to the Cad-11 antigen than to the related antigens from the other cadherins [8]: > 100 fold | B11 |
|  | IC50 (read off the curve) [9]: 0.2 µg/mL | B12 |
| 0.07 µg/mL |  | B13 |
| 0.06 µg/mL |  | B14 |
| 0.06 µg/mL | fold greater binding to the Cad-11 antigen than to the related antigens from the other cadherins [8]: > 20 fold | B15 |
| 0.06 µg/mL |  | B16 |
| 0.05 µg/mL | fold greater binding to the Cad-11 antigen than to the related antigens from the other cadherins [8]: > 20 fold | B17 |
|  | fold greater binding to the Cad-11 antigen than to the related antigens from the other cadherins [8]: > 20 fold | B18 |
